The target of assay [1] is T1, trypsin inhibitor from glycine max soybean (Glycine max (soybean)).
T1 construct: also called Tryp
Description: SPR (Biacore T200), trypsin inhibitor on CM5 chip, sample at 1 µM. From the text:
To prepare the surface for the non-specific binding experiment, chicken egg white lysozyme and trypsin inhibitor from glycine max soybean were coupled manually to a series S CM5 chip with the surface density of 3000-5000 RU using the amine coupling kit according to the manufacture instructions.
In general terms: SPR reads the build-up and loss of mass on a sensor chip optically.

For another assay, the target named is T2, Human CD3 E+G HuFc-6xHis (human).
T2 construct: also called hu CD3εγ-Fc
Description: SPR (ProteOn XPR36), HuCD3E_HuCD3G-Fc amine-coupled, bispecific as analyte, Example 4B. The method, boiled down: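 SPR kinetics with the bispecific constructs flowed as analyte over a directly amine-coupled (pH 4.5 acetate) human CD3εγ-Fc surface. Association runs 600 s and dissociation 1800 s, at 30 μl/min in PBS-T-EDTA.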

A further assay deals with T3, Human DLL3-His (human, UniProt Q9NYJ7 27-492).
T3 construct: also called huDLL3-His; hu DLL3
T3 sequence: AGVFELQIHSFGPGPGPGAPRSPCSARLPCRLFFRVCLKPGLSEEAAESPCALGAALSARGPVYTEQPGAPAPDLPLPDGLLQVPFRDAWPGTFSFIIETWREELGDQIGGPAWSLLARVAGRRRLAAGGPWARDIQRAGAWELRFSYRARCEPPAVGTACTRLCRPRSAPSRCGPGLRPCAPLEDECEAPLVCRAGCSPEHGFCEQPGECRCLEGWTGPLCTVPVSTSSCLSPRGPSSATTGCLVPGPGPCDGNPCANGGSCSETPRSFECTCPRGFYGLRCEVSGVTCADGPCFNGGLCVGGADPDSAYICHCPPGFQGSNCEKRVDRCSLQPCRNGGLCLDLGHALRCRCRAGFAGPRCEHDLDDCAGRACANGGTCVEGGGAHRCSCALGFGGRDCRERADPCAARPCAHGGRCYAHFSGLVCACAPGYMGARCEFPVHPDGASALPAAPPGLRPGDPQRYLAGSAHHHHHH
The experiment in a line: SPR (ProteOn XPR36), bispecific captured on protein A/G, hu DLL3 as analyte, Example 4B. The method in brief: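 Bispecific constructs captured on protein A/G for 200 s at 30 μl/min, baseline stabilized with PBS-T-EDTA. Human DLL3 analyte injected 300 s at 30 μl/min; dissociation followed for 1800 s.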

Assay [2] concerns the target T4, FLAG-tagged human DLL1 full length (human, UniProt O00548 1-723).
T4 construct: also called human DLL1 on HEK293 cells
T4 sequence: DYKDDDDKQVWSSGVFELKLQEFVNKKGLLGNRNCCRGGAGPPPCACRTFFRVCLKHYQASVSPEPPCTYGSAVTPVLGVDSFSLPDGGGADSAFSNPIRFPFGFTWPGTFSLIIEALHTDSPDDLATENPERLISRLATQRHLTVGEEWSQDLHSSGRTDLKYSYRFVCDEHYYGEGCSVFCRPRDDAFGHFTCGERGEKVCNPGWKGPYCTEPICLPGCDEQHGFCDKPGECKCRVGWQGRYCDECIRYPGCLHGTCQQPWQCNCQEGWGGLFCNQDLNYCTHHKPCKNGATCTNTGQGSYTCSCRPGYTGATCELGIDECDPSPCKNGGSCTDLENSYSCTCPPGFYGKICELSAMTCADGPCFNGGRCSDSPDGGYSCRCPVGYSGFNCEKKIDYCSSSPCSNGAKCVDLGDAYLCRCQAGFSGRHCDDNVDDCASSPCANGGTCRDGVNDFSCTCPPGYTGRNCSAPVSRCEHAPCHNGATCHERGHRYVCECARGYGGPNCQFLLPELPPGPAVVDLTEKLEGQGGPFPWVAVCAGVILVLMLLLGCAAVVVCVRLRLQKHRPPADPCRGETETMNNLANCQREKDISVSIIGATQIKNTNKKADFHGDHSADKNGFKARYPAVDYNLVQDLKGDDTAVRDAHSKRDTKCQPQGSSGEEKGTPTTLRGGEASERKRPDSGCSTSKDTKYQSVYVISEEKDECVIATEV
Description: flow cytometry on HEK293 cells expressing human DLL1 (HEK293-huDLL1), PE anti-human secondary, control: secondary antibody only. Here is the method: Bound molecules were detected with PE-conjugated anti-human secondary antibody (Sigma-Aldrich, #P8047). As negative control, cells were incubated with secondary antibody only. The samples were measured by flow-cytometry.
On the technique in general: A flow cytometer gives signals particle by particle.

The target of a further assay is T5, EGF5+6.
T5 construct: also called Hu DLL3 EGF5+6 on HEK293 cells
T5 membrane-anchored DLL3 subdomain construct: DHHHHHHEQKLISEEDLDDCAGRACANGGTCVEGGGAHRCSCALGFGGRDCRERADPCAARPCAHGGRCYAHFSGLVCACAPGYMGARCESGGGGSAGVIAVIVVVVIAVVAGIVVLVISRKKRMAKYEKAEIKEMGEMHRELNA
The experiment in a line: flow cytometry on HEK293 cells expressing the DLL3 subdomain construct, PE anti-human secondary, control: secondary antibody only. The method in brief:
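Binders tested on HEK293 cells displaying the DLL3 subdomain construct; bound molecules detected by flow cytometry using PE-conjugated anti-human secondary antibody. Negative control: cells with secondary antibody only.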

Consider two molecules from patent publication US20220251236A1 (Boehringer Ingelheim, published 2022).

T1 sequence (P01070 25-205): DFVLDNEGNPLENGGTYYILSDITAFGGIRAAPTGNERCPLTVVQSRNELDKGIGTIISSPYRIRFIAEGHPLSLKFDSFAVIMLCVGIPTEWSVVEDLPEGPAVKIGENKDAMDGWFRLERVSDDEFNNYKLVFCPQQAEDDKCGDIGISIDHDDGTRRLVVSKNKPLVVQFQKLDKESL
T2 sequence (chain, as listed by the source limits assumed): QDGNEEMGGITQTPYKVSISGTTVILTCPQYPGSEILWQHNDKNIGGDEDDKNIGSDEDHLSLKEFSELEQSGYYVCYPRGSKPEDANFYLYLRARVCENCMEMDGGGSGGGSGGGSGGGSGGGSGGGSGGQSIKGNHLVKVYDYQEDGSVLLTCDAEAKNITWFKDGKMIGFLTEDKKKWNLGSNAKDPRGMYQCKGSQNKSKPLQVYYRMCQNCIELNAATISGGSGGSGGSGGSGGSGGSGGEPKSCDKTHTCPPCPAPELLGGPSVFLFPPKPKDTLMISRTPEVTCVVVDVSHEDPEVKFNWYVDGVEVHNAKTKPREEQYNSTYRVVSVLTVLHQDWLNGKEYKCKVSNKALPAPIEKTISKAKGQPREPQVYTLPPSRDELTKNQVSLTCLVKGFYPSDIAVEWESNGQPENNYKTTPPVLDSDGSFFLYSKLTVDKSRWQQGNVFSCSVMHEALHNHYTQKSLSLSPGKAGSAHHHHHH

B1: DLL3#2/CD3#1 (bispecific antibody, human IgG1, kappa, lambda, L234A L235A)
chain 1: DIQMTQSPSAMSASVGDRVTITCRASQGISNYLAWFQQKPGKVPEPLIYAASSLQSGVPSRFSGSGSVTEFTLTISSLQPEDFATYYCLQHNSSPYTFGQGTKLEIKRTVAAPSVFIFPPSDEQLKSGTASVVCLLNNFYPREAKVQWKVDNALQSGNSQESVTEQDSKDSTYSLSSTLTLSKADYEKHKVYACEVTHQGLSSPVTKSFNRGECGGGGSEGKSSGSGSESKSTEGKSSGSGSESKSTGGGGSQVQLVQSGAEVKKPGASVKVSCKASGYTFTSYYMHWVRQAPGQGLEWMGIINPSGGSTSYAQKFQGRVTMTRDTSTSTVYMELSSLRSEDTAVYYCARGEAVGGNYYYYGMDVWGQGTTVTVSSASTKGPSVFPLAPSSKSTSGGTAALGCLVKDYFPEPVTVSWNSGALTSGVHTFPAVLQSSGLYSLSSVVTVPSSSLGTQTYICNVNHKPSNTKVDKRVEPKSCDKTHTCPPCPAPEAAGGPSVFLFPPKPKDTLMISRTPEVTCVVVDVSHEDPEVKFNWYVDGVEVHNAKTKPREEQYNSTYRVVSVLTVLHQDWLNGKEYKCKVSNKALPAPIEKTISKAKGQPREPQVYTLPPSREEMTKNQVSLWCLVKGFYPSDIAVEWESNGQPENNYKTTPPVLDSDGSFFLYSKLTVDKSRWQQGNVFSCSVMHEALHNHYTQKSLSLSPG
chain 2: EAVVTQEPSLTVSPGGTVTLTCRSSTGAVTTSNYANWVQEKPGQLPRGLIGGTNKRAPWVPARFSGSLLGGKAALTLSGAQPEDEAEYFCALWYSNLWVFGGGTKLTVLGQPKAAPSVTLFPPSSEELQANKATLVCLISDFYPGAVKVAWKADGSPVNTGVETTTPSKQSNNKYAASSYLSLTPEQWKSHRSYSCQVTHEGSTVEKTVAPAECSGGGGSEGKSSGSGSESKSTEGKSSGSGSESKSTGGGGSEVQLVESGGGLVQPGGSLKLSCAASGFTFNTYAMNWVRQAPGKGLEWVARIRSKYNNYATYYADSVKDRFTISRDDSKNTAYLQMNNLKTEDTAVYYCVRHGNFGNSYVSWFAYWGQGTLVTVSAASTKGPSVFPLAPSSKSTSGGTAALGCLVKDYFPEPVTVSWNSGALTSGVHTFPAVLQSSGLYSLSSVVTVPSSSLGTQTYICNVNHKPSNTKVDKRVEPKSCDKTHTCPPCPAPEAAGGPSVFLFPPKPKDTLMISRTPEVTCVVVDVSHEDPEVKFNWYVDGVEVHNAKTKPREEQYNSTYRVVSVLTVLHQDWLNGKEYKCKVSNKALPAPIEKTISKAKGQPREPQVYTLPPSREEMTKNQVSLSCAVKGFYPSDIAVEWESNGQPENNYKTTPPVLDSDGSFFLVSKLTVDKSRWQQGNVFSCSVMHEALHNRFTQKSLSLSPG
notes: Heterodimer of one DLL3 chain and one CD3 chain (scFab-Fc, knob-in-hole)
B1: in assay [1], the “Non-specific binding (RU)” value was found to be 2 RU. In addition, the Kd amounted to 3 nM with Human CD3 E+G HuFc-6xHis and 0.091 nM with Human DLL3-His. The binding result (in assay [2]; with EGF5+6) was “no binding (tested: 1.6 nM)” in each case.

B2: DLL3#3/CD3#1 (bispecific antibody, human IgG1, kappa, lambda, L234A L235A)
chain 1: DIQMTQSPSAMSASVGDRVTITCRASQGISNYLVWFQQKPGKAPKRLIYAVSSLYSGVPSRFSGSGSGTEFTLTISSLQPEDFATYYCLQHDSYPYTFGQGTKLEIKRTVAAPSVFIFPPSDEQLKSGTASVVCLLNNFYPREAKVQWKVDNALQSGNSQESVTEQDSKDSTYSLSSTLTLSKADYEKHKVYACEVTHQGLSSPVTKSFNRGECGGGGSEGKSSGSGSESKSTEGKSSGSGSESKSTGGGGSQVQLVQSGAEVKKPGASVKVSCKASGYTFTSYYVHWVRQAPGQGLEWMVIINPGGGTTSYAQKFLGRVTMTRDTSTNTVYMELKSLRSEDTAVYYCARGEAVTGNYFYYGMDVWGQGTTVTVSSASTKGPSVFPLAPSSKSTSGGTAALGCLVKDYFPEPVTVSWNSGALTSGVHTFPAVLQSSGLYSLSSVVTVPSSSLGTQTYICNVNHKPSNTKVDKRVEPKSCDKTHTCPPCPAPEAAGGPSVFLFPPKPKDTLMISRTPEVTCVVVDVSHEDPEVKFNWYVDGVEVHNAKTKPREEQYNSTYRVVSVLTVLHQDWLNGKEYKCKVSNKALPAPIEKTISKAKGQPREPQVYTLPPSREEMTKNQVSLWCLVKGFYPSDIAVEWESNGQPENNYKTTPPVLDSDGSFFLYSKLTVDKSRWQQGNVFSCSVMHEALHNHYTQKSLSLSPG
chain 2: EAVVTQEPSLTVSPGGTVTLTCRSSTGAVTTSNYANWVQEKPGQLPRGLIGGTNKRAPWVPARFSGSLLGGKAALTLSGAQPEDEAEYFCALWYSNLWVFGGGTKLTVLGQPKAAPSVTLFPPSSEELQANKATLVCLISDFYPGAVKVAWKADGSPVNTGVETTTPSKQSNNKYAASSYLSLTPEQWKSHRSYSCQVTHEGSTVEKTVAPAECSGGGGSEGKSSGSGSESKSTEGKSSGSGSESKSTGGGGSEVQLVESGGGLVQPGGSLKLSCAASGFTFNTYAMNWVRQAPGKGLEWVARIRSKYNNYATYYADSVKDRFTISRDDSKNTAYLQMNNLKTEDTAVYYCVRHGNFGNSYVSWFAYWGQGTLVTVSAASTKGPSVFPLAPSSKSTSGGTAALGCLVKDYFPEPVTVSWNSGALTSGVHTFPAVLQSSGLYSLSSVVTVPSSSLGTQTYICNVNHKPSNTKVDKRVEPKSCDKTHTCPPCPAPEAAGGPSVFLFPPKPKDTLMISRTPEVTCVVVDVSHEDPEVKFNWYVDGVEVHNAKTKPREEQYNSTYRVVSVLTVLHQDWLNGKEYKCKVSNKALPAPIEKTISKAKGQPREPQVYTLPPSREEMTKNQVSLSCAVKGFYPSDIAVEWESNGQPENNYKTTPPVLDSDGSFFLVSKLTVDKSRWQQGNVFSCSVMHEALHNRFTQKSLSLSPG
notes: as for B1
Consider B2, for which the “Non-specific binding (RU)” value in assay [1] was 85 RU. The Kd with Human CD3 E+G HuFc-6xHis was found to be 2 nM; with Human DLL3-His, 0.075 nM. Also, the binding result (in assay [2]; with EGF5+6) was “no binding (tested: 1.6 nM)” throughout.

As a reminder, the Kd is the constant that tells how readily two partners part at equilibrium. Higher therefore signals a looser complex.
